Laboratory results reported in the nanobody polyreactivity screen of Harvey et al. (2022).

Assay: yeast display, Sf9 membrane polyspecificity reagent, FACS + sequencing; frameworks hold sequencing errors
Method in brief: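 Polyreactivity labels are assigned by the sorting gate from which each nanobody was recovered. The gates were low and high (top ~1%), set on anti-HA fluorescence for expression and streptavidin fluorescence for reagent binding. Before sorting, galactose-induced (36–48 hours) yeast display cells were stained for 1 hour at 4 °C with 10% biotinylated, detergent-solubilized Sf9 membrane reagent.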

Sequence | polyreactivity (PSR sort gate)
QVQLVESGGGLVQAGGSLRLSCAASGSTFYRYAMGWYRQAPGKERELVAVITSGGSTNYADSVKGRFTISRDNAKNTVYLQMNSLKPEDTAVYYCAKEDGYSQLKTTFDEAGYGSWGQGTQVTVSS | low polyreactivity
QVQLVESGGGLVQAGGSLRLSCAASAFYTNAMGWYRQAPGKERELVAAITSDGDSTYYADSVKGRFTISRDNAKNTVYLQMNSLKPEDNAVYYCAADAVPTSVVDWGFYGMYWGQGTQVTVSS | low polyreactivity
QVQLVESGGGLVQAGGSLRLSCAASGRTIGPYAMGWYRQAPGKERELVAAISGGGSTNYADSVKGRFTISRDNAKNTVSLQMKSLKPEDTAVYYCNTEYPISGEEEYWGQGTQVTVSS | low polyreactivity
QVQHVESGGGLVQAGGSLRLSCAASGRIFVPYGMGWYRQAPGKERELVAAISLRGGTTYYADSVKGRFTISRDNAKNTVYLQMNSLKPEDTAVYYCAARGYVSVWRPYHWFVAGDYWGQGTQVTVSS | high polyreactivity
HVQLVESGGGLVQAGGSLRLSCAASGRIFKYYAMGWYRQAPGKERELLAAITYSGGSTNYADSVKGRFTISRDNAKNTVYLQMKSLKPEDTAVYYCNAYSYRNFLSHYNYWGQGTQVTVSS | high polyreactivity
QVQLVESGGGLVQAGGSLRLSCEDSGFIFRVYAMGWYLQAPGKERELVAAINSGGSTNYADSVKGRFTISRDNAKNTVYLQMNSLKPEDTAVYYCAARVKTSYRYLRTYNYCGQGTQVTVSS | high polyreactivity
QVQLVESGGGLVQAGGSLRLSCAASGFTFPRYAMGWYRQAPGKERELVAAITVGGGRTYYADSVKGRFTISRDNANNTVYLQMNSLKPEDTAVYYFAADSHASTYDYWGQGTQVTVSS | low polyreactivity
QVQLVESGGGLVQAGGSLRLSCAASGRIFVRNAMGWYRQAPGKERELVAGISNAGRTNYADSVKGRFTISRDNAKNTVYLQMNSLKPEDTAVYYCAKRPGYDYDYWGQGTQVTVSS | high polyreactivity
QVPLVESGGGLVQGGGSLRLSCAASGSIFRGNAMGWYRQAPGKERELVAAISKSGGSTYYADSVKGRFTISRDNAKNTVYLHMNSLKPEDTAVYYCAARTTYLYGRYYWGQGTQVTVSS | low polyreactivity
QVQLVESGGGLVQAGGSLRLSCAASGRTFKRYAMGWYRQAPGNERELVAAIRRGGITNYADSVKGRFTISRDNAKNTVYLQMNSLKPEDTAVYYCAKDGVTYPYSYEYDYWGLGTQVTVSS | low polyreactivity
QVQLVESGGGLVQAGGSLRLSCAASGFIFLGYAMGWYRQAPGNERELVAAISESSGTTSYADSVKGRFTISRDNAKNTVYLQMNSLKPEDNAVYYCAADSIGNYLLYDYWGQCTQVTVSS | low polyreactivity
QVQLVESGGGLVQAGGSLRLSCAASGSTFGYYAMGWYRQAPGKERELVASITWGGGSTYYADSVKGRFTISRDNAKNTVYLQMNSLNPEDTAVYYCAATILGGTWGYGSYTYYYWGQGTQVTVSS | low polyreactivity
QVQLVESGGGLVQAGGSLRLSCAASGFILDNYAMGWYRQAPGKERELVAAISGSGGSTYYADSVKGRFTISRDNAKNTVYLQMNSLKPEDTAVYYCNRDRLLRQYDYWGQGTQVTVSS | high polyreactivity
QVQLVESGGGLVQAGGSLRLSCAASGRTSGNYAMGWYRQAPGKERELVAAIRYSGSSTFYADSVKGRFTISRDNAKNTVYLQMNSLKPEDTAVYYCARDIRRKGFRYDYWGQGTQVTVSS | high polyreactivity
QVQIVESGGGLVQAAGSLRLSCAAYGRIFGVYAMGWYRQAPGKERELVSNITSGGSTSYADSVKGRFTISRDNAKNTVYLQMNSLKPEDTAVYYCNAPYSFFWQQMNYWGQGTQVTVSS | low polyreactivity
QVQRGESGGGLVQAGGSLRLSCAASAIIIYYYAMGCYRQAPGNERELVAGISYSGGSTYADSVKGRFTISRDNAKLTVYLQMNSLKPEDTAVYYCAAEYEYGGHWYDYWGQGTQETVSS | low polyreactivity
QGQLVESGGGLVQAGGSLRLSCAASGITFGDNAMGWYRQAPGKERELVAAISSGGSTDYADSVKGRFTISRDNAKNTVYLQMNSLKPEDTAVYYCAFDWVSVPEYDYWGQGTQVTVSS | low polyreactivity
QVQLVESGGGLVQAGGSLRLSCAASGYIFVRNAMGWYRQAPGKERELVAAISGSGGSTYYADSVKGRFTISRDNAKNSVYLQMNSLKPEDTAVYYCAARRYGYRYDQPYSNDYWGLGTQVTVSS | low polyreactivity
QVQLVESAGGLVQAGGSLRLSCDASGLTYSYYAMGWYIQAPGKERELVAAISWSGGSTYYADSVNGRFTISRDNAKNTVYLQMNSLKPEDTAVYYCAKYPNRHYWYDYWGQGTQVTVSS | low polyreactivity
QVQLVESGGGIVQAGGSLRISCAASGYNFRYNAMGWYRQAPGKERELVATITRGGSTNYPDSVKGRFTISRDNAKNTVYLQMNSMKPEDTAVYYCKKEAAPLGFVPSYYGRDYWGQGTQVTVSS | low polyreactivity
QVQLVESGGGLVQAGGSLRLSCAASGSTFYGYGLGWYRPAPGKERELFAAITGSGDTTYYADSVKGRFTISRDNAKNTVYLQMNSLKPEDTAVYYCNARWHAEYDYWGQGTQVTVSS | low polyreactivity
QVQLVESGGGLVQAGGSLRLSCAASGRIFRINAMGWYRQAPGKEMELVASSSRRGGNTYYADSVKGRFTISRDNAKNTVYLQMNSLKPEDTAVYYCAADTNQERTFDYWGQGTQVTVSS | low polyreactivity

Sequence | polyreactivity (PSR sort gate)
HVQLVESGGGLVQAGGSLRLSCAASGSTFGYNARGWYRQAPGKERELVAVITDSGGSTKYADSVKGRFTISRDNAKKTVYLQMNSLKPEDTAVYYCAKRSSQTRRAYDYWGQGTQVTVSS | low polyreactivity
QVQLVESGGGLVQAGGSLRLSCAASGSIFTGNAMGWYRQAPGKERELVASSTTTTDSTYYADSVKGRFTISRDNAKNTVYLQMNSLKPEDTAVYYCAAEYAVAWKYGLYFYFHFDYWGQGTQVTVSS | low polyreactivity
QVQLVESGGGLVQAGGSLRLSCAPSGFTFSPYTMGWYRQAPGKETELVATIRYDGTSTYYADSVKGRFTISRDNAKNTVYLQMNSLKPEDTAVYYCNADGSAQDIAELDYWGQGTQVTVSS | low polyreactivity
QVQLVESGGGLVQAGGSLRLSCAAYGRIFDAYAMGWYRQAPGKERELVAAITQSGGSTFYADSVKGRFTNSRDNAKNTVYLQMNSLKPEDTAVYDSNTGLSGRRYGFGVSFGMDYWGQGTQVTVSS | low polyreactivity
QVQLVESGGGLVKAGGSLRLSCAASGSTFVGYAMGWYRQAPGKERELVADITWSGTNTYYADSVKGRFTISRDNAKNTVYLQMNSLKPEDTAVYYCAADIARSVRFYYWGQGTQVTVSS | low polyreactivity
QVQLVESGGGLVQAGGSLRLSCSASGRTFRGNAMGWSRHAPGKEREMVAAITSSGGSTYYADSVKGRFTISRDNAKNNVHLKMNSLKPEDTAVYYCAKTYVVPQYDYDYWGQGTQVTVSS | low polyreactivity
QVQLVESVVGLVQAGGSLRLSCAASGSTFYTYAMGWYRQAPGKERELVAAISYRGGSTYYADSVKGRFTISRDNAKNTVDLQMNSLKPEDTAVFYCNVDGVVVGNKRGGYDYWGQGTQVTVSS | low polyreactivity
QVQLVESGGGLVQAGGSLRLSCAASGRTSVKYAMGWSRQAPGKERELVATIRYRTASTYYADSVKGRFTISRDNAKNTVYLQMNSPKPEDTAVYYCAAATSYASPWWYLYYYWGQGSQVTVSS | high polyreactivity
QVQLVESGGGLVQAGGSLRLSCAASGGTFLVYAMGWYRQAPGKERELVAAITRSGGSTYYADSVKGRFTISRDNAKNTVYLQMNSLKPEDTAVYYCNARYRNSGRYWDWYYYWGQGTQVTVSS | high polyreactivity
QVQLQESGGGLVQAGGSLRLSCAASGTISDSGLMGWYRQAPGKERELVAGISSGGITNYADSVKGRFTISRDNAKNSVDLQMNSLKPEDTAVYWGRGTQVTVSS | low polyreactivity
QVQRVDSGGGLRQAGGSLRLTCSASGSIFGLYAMGWYRQATGKERELVASISKSGGSTYYADCVKGRFTISRDNAKNTVYLQMNRLKPEDTAVYYCAARQYPRAGFDYWGQGTQVPVSS | high polyreactivity
QVQLVESGGCIVQAGGSLRLSCAASGITFLSNPMGWYSQAPGKERELVAAIDCRGDSTYYADSVKGRFTISRDNAKNTVYLQMNSLKPEDTAVYYCNADISGSGQWDGYDYWGQGTQVSVSS | low polyreactivity
QVQLVESAGGLVQAGGSLRLSCAASGRIFVYYAMGGYRKAPGKERELVAAISDSDDSSYYADSVKGRFTISRDNAKNTVYLQMNSLKPEDTAVYYCAAEGDIGGDDYYWGQGTQLTVSS | high polyreactivity
QVQLVESGGCLVQAGGSLRLSCAASGRTFSRNAMGWYRQAPGKERELVAAISQRGVYTYYADSVKGRFTISRDNAKNTVYLQMNRLKPEDSAVYYCNTRGTYRYDYWGQGTQVTVSS | low polyreactivity
QVQLVESGGGLVQAGGSLRLSCAASGRTFGYYAMGWYRQAPGKERELVAAISRGGRTNYADSVKGRFTISRDNAKNTVYLQMNSLKPEDTAVYYCAKSGTIPRYTASYSLLDYWGQGTQVTVSS | low polyreactivity
QVQLVESGGGLVQAGGSLRLSCAASGSTFYPYAMGWYRQAPGKERELVASITTDDGSTYYADSVKGRFTISRDNAKNTVYLQMNSLKPEDTAVYYCAARFRGFAVDWYPFRQGDYWGQGTQVTVSS | low polyreactivity
QVQLVESGGGLVQAGGSLRLSCAASGRIFYPYAMGWYRQAPGKERELVAAISRSGGSTYYADTVKGRFTISRDNAKNTVYLQMNSLKPEDTAVYYCAAEVVYFYSDAHIGYVDYEYWGQGTQVTVSS | low polyreactivity
QVQLVESGGGLVQAGGSLRLSCAASGRTFRSYAMGWYRQAPGKERELVAAISWTGGSTYYADSVKGRFTISRDNAKNTVYLQMNSLKPEDTAVYYCAVRYRGYGYDWGQGTQVTVSS | high polyreactivity
QVQLVESGGGLVQAGGSLRLSCAASGSIFGGYAMGGYRQAPGKERELFARITDRGGSTDYADSVKGRFTISRDNAKNTVYLQMNRLKPEDTAVYYCAKRGDRYEKRPRDYWGQGTQVTVSS | low polyreactivity
QVQLVESGVGLVQAGGSLRLSCAASGLTFRPNAMGWYRQAPGKERELVASISFSGGSTYYADSVKGRFTISRDNAKNTVYLQMNSLKPEDTAVYYCAADVATTHELDYWGQGTQVTVSS | high polyreactivity
QVQLVESGGGLVQAGGSLRLSCAASGFTFRYYAKGWYRQAPVKERELVARISRGGNTYYADSVKGRLTISRDNAKNTVYLHMNSLKPEDTAVYYCAVDLTRTLSGMDYWGQGTQVTVSS | high polyreactivity
